Reference: PMC11704961

Columns and labels:
Assay in all cases: EMSA
[1] = molecular target: IPMK (human, UniProt Q8NFU5 1-416)
[2] = molecular target: T1, SRF (His-SRF);Elk1 (GST-His-Elk1) (human;human, UniProt P11831;P19419 1-508;1-428, |)
T1 sequence 1: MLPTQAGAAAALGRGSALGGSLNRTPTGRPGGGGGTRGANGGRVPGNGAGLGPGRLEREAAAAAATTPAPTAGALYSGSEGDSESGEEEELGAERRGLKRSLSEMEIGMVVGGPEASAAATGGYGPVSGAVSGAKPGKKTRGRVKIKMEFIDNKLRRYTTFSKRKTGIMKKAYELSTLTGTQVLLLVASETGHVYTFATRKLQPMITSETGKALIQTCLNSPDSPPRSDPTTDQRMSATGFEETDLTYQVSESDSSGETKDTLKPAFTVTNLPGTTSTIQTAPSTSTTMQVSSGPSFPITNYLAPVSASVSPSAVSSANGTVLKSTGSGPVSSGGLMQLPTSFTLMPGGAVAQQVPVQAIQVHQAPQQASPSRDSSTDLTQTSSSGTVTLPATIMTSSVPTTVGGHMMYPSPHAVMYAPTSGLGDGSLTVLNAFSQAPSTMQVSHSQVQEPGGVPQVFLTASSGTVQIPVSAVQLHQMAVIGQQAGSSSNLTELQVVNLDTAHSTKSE
T1 sequence 2: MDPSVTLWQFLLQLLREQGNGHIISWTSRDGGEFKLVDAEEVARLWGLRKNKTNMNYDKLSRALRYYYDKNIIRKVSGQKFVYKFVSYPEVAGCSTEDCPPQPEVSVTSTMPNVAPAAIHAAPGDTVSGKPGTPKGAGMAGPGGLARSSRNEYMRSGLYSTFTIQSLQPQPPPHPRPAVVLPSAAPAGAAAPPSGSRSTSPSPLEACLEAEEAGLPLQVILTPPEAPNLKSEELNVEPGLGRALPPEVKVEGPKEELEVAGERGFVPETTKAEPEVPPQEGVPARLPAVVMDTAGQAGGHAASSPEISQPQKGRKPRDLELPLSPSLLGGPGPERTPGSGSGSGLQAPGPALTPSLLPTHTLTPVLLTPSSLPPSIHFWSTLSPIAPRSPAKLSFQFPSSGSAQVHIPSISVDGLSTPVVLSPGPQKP

[3] = molecular target: T2, SRF (His-SRF) (human, UniProt P11831 1-508)
T2 sequence: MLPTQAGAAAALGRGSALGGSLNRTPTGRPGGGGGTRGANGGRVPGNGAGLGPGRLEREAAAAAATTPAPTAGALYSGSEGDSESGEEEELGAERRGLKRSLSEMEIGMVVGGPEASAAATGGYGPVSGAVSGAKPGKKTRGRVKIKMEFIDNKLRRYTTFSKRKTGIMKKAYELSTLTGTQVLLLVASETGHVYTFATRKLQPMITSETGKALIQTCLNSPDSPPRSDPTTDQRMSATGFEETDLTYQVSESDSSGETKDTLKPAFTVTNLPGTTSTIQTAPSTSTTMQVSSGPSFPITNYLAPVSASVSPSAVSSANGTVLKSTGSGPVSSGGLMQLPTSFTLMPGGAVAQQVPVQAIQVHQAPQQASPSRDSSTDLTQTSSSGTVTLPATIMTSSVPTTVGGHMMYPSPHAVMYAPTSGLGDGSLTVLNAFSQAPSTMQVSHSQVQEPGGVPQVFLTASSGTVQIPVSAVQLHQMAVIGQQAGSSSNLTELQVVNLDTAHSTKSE

Sequence of IPMK (Q8NFU5 whole entry): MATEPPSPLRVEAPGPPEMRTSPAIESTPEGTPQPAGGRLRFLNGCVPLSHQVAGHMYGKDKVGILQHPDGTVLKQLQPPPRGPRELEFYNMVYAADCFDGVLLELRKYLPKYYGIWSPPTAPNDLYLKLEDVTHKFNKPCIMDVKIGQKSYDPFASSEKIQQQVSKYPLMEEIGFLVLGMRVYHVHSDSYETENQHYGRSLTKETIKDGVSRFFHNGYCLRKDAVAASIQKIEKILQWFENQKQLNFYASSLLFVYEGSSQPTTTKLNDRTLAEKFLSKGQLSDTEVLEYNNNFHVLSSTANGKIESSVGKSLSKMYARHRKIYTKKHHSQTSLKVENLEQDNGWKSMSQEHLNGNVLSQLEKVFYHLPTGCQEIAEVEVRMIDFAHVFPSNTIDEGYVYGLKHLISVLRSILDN

B1: c-fos SRE EMSA probe (dsDNA)
DNA 1: CTAAGCTTGCTGACGCAGATGTCCTAATATGGACATCCTGTCCCGGGGA
DNA 2: TCCCCGGGACAGGATGTCCATATTAGGACATCTGCGTCAGCAAGCTTAG
**Q.** What does the source list for B1?
**A.** binding result [1]: no binding; binding result [2]: binds; binding result [3]: binds
